Reference: PMC6398471, “The depolymerase activity of MCAK shows a graded response to Aurora B kinase phosphorylation through allosteric regulation” (Journal of Cell Science, 2019)
Changes are numbered by the printed parent chain.

B1: full-length human MCAK (natural protein, UniProt Q99661 1-725, looked up)
chain: MAMDSSLQARLFPGLAIKIQRSNGLIHSANVRTVNLEKSCVSVEWAEGGATKGKEIDFDDVAAINPELLQLLPLHPKDNLPLQENVTIQKQKRRSVNSKIPAPKESLRSRSTRMSTVSELRITAQENDMEVELPAAANSRKQFSVPPAPTRPSCPAVAEIPLRMVSEEMEEQVHSIRGSSSANPVNSVRRKSCLVKEVEKMKNKREEKKAQNSEMRMKRAQEYDSSFPNWEFARMIKEFRATLECHPLTMTDPIEEHRICVCVRKRPLNKQELAKKEIDVISIPSKCLLLVHEPKLKVDLTKYLENQAFCFDFAFDETASNEVVYRFTARPLVQTIFEGGKATCFAYGQTGSGKTHTMGGDLSGKAQNASKGIYAMASRDVFLLKNQPCYRKLGLEVYVTFFEIYNGKLFDLLNKKAKLRVLEDGKQQVQVVGLQEHLVNSADDVIKMIDMGSACRTSGQTFANSNSSRSHACFQIILRAKGRMHGKFSLVDLAGNERGADTSSADRQTRMEGAEINKSLLALKECIRALGQNKAHTPFRESKLTQVLRDSFIGENSRTCMIATISPGISSCEYTLNTLRYADRVKELSPHSGPSGEQLIQMETEEMEACSNGALIPGNLSKEEEELSSQMSSFNEAMTQIRELEEKAMEELKEIIQQGPDWLELSEMTEQPDYDLETFVNKAESALAQQAKHFSALRDVIKALRLAMQLEEQASRQISSKKRPQ
notes: MCAK (Kif2C), human, full length; also called Kif2C; kinesin-13; source: Sf9 insect cells (pFastBac), purified
B2: Aurora B-phosphorylated MCAK-GFP (natural protein, human, UniProt Q99661 1-725, looked up)
chain: B1 chain
modifications: phosphorylated in vitro with Aurora B kinase; the sites modified in this sample are not stated
notes: MCAK (Kif2C), human, full length; Phosphorylation protocol is in Welburn et al., 2010; source: Sf9 insect cells (pFastBac), purified, phosphorylated in vitro with Aurora B kinase; not shown: GFP, C-terminal, kept
B3: MCAKS2E-GFP (natural protein, human, UniProt Q99661 1-725, looked up)
chain: B1 chain with S166E, S192E
notes: MCAK (Kif2C), human, full length, phosphomimetic in the neck region (Ser192 and Ser166 replaced by glutamate); Site-directed mutagenesis of MCAK-GFP; source: Sf9 insect cells (pFastBac), purified; not shown: GFP, C-terminal, kept
B4: MCAKS6E-GFP (natural protein, human, UniProt Q99661 1-725, looked up)
chain: B1 chain with S95E, S109E, S111E, S115E, S166E, S192E
notes: MCAK (Kif2C), human, full length, Aurora B phosphomimetic for six serines in the N-terminus and neck; Site-directed mutagenesis of MCAK-GFP; source: Sf9 insect cells (pFastBac), purified; not shown: GFP, C-terminal, kept
B5: MCAK-GFP (natural protein, human, UniProt Q99661 1-725, looked up)
chain: B1 chain
notes: MCAK (Kif2C), human, full length; also called GFP-tagged MCAK; source: Sf9 insect cells (pFastBac), purified; not shown: GFP, C-terminal, kept

Legend:
[1] = molecular target: Taxol-stabilized microtubules, digoxigenin- and HyLite-647-labeled, P02550;P02554; assay: single-molecule imaging of MCAK-GFP on microtubules; settings: 32 mM K-PIPES, parent: 6.14e-6
[2] = molecular target: the molecule itself; assay: cross-linking; BS3 on MCAK alone: 10 µg MCAK with 20 µg BS3 in 10 mM HEPES pH 7, 200 mM potassium acetate pH 7.6, on ice 1 h; SDS-PAGE, band cut out, mass spectrometry
[3] = molecular target: Taxol-stabilized microtubules, digoxigenin- and HyLite-647-labeled (UniProt P02550 1-451; P02554 1-445, 8% of the tubulin digoxigenin-labeled, 3.5% labeled with HyLite-647; chain and residues not stated | 8% of the tubulin digoxigenin-labeled, 3.5% labeled with HyLite-647; chain and residues not stated); assay: single-molecule TIRF microscopy (residence times); microtubules held on the coverslip by anti-DIG antibody; MCAK at 5-100 pM in MRB80 (80 mM K-PIPES pH 6.9, 1 mM EGTA, 4 mM MgCl2) with 1 mM ATP, κ-casein, 40 µM taxol; 23°C; off-rate = 1/τ of a single exponential fit; settings: both partners purified
Chain of Taxol-stabilized microtubules, digoxigenin- and HyLite-647-labeled (P02550 whole entry, chain 1 of 2): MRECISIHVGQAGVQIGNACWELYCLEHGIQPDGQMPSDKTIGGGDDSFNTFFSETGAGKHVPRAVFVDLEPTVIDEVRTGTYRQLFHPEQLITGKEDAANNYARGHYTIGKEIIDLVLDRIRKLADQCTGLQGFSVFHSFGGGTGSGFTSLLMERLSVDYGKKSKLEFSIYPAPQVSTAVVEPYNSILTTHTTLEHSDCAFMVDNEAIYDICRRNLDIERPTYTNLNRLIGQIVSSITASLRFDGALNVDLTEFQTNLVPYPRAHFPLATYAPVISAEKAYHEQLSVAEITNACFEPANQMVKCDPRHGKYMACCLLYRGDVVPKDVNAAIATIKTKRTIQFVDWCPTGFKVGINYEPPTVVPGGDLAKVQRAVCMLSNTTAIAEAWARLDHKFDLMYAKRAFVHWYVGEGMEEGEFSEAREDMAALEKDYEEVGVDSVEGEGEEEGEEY
Chain of Taxol-stabilized microtubules, digoxigenin- and HyLite-647-labeled (P02554 whole entry, chain 2 of 2): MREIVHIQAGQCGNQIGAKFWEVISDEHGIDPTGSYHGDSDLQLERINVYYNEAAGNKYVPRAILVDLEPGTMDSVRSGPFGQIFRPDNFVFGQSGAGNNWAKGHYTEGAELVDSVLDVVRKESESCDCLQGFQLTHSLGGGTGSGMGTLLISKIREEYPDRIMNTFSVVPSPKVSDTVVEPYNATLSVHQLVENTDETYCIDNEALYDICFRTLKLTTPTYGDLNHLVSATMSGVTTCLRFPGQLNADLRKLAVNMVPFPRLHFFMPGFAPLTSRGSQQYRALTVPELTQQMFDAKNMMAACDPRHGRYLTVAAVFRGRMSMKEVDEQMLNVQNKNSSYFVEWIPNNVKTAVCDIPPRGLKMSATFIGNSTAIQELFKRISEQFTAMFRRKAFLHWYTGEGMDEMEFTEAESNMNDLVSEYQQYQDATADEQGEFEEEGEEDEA

Row | Molecule | koff [3] [s⁻¹] | also measured
1 | MCAK-GFP (from UniProt Q99661) S166E; S192E | – | kon ([1]; n = 280): 6720 M⁻¹ s⁻¹
2 | MCAK-GFP (from UniProt Q99661) S95E; S109E; S111E; S115E; S166E; S192E | – | kon ([1]; n = 439): 11000 M⁻¹ s⁻¹
3 | B1 | – | stoichiometry N [2]: 2
4 | B2 | 23.4 | –
5 | B3 | 3.2 | –
6 | B4 | 25.8 | –
7 | B5 | 1.6 | –
